Molecular target: human 4-1BB (human) (UniProt Q07011)
Experiment: flow cytometry; dilution series of HEK293T supernatant on Jurkat TPR cells expressing human 4-1BB

Chain of human 4-1BB (human) (Q07011 24-255): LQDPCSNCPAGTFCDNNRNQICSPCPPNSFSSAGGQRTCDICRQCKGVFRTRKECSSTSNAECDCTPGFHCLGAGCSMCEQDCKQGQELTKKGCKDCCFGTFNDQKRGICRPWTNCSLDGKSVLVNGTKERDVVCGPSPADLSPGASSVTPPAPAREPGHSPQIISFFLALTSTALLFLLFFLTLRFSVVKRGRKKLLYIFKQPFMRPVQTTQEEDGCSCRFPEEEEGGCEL

B1: s4-1BBL-TriXV (ligand)
chain: GSGSNWSHPQFEKGGSGGHHHHHHGGSGGGSRNLVTAFSNMDDMLQKAHLVIEGTFIYLRDSTEFFIRVRDGWKKLQLGELIPIPADSGSLDLRQGMFAQLVAQNVLLIDGPLSWYSDPGLAGVSLTGGLSYKEDTKELVVAKAGVYYVFFQLELRRVVAGEGSGSVSLALHLQPLRSAAGAAALALTVDLPPASSEARNSAFGFQGRLLHLSAGQRLGVHLHTEARARHAWQLTQGATVLGLFRVTPEIPAGLPSPRSE
supernatant dilution at which binding is no longer detectable (supernatant dilution (1:x)): 512

B2: Triple-s4-1BBL-TriXVIII^LL (ligand)
chain: GSGSNWSHPQFEKGGSGGHHHHHHGGSGGGSSGAGGSGGSSGSDGASGSGVRLWATRQAMLGQVHEVPEGWLIFVAEQEELYVRVQNGFRKVQLEARTPLPRGTDNEGSLDLRQGMFAQLVAQNVLLIDGPLSWYSDPGLAGVSLTGGLSYKEDTKELVVAKAGVYYVFFQLELRRVVAGEGSGSVSLALHLQPLRSAAGAAALALTVDLPPASSEARNSAFGFQGRLLHLSAGQRLGVHLHTEARARHAWQLTQGATVLGLFRVTPEIPAGLPSPRSEGGGGSGGGGSGGGGSLDLRQGMFAQLVAQNVLLIDGPLSWYSDPGLAGVSLTGGLSYKEDTKELVVAKAGVYYVFFQLELRRVVAGEGSGSVSLALHLQPLRSAAGAAALALTVDLPPASSEARNSAFGFQGRLLHLSAGQRLGVHLHTEARARHAWQLTQGATVLGLFRVTPEIPAGLPSPRSEGGGGSGGGGSGGGGSLDLRQGMFAQLVAQNVLLIDGPLSWYSDPGLAGVSLTGGLSYKEDTKELVVAKAGVYYVFFQLELRRVVAGEGSGSVSLALHLQPLRSAAGAAALALTVDLPPASSEARNSAFGFQGRLLHLSAGQRLGVHLHTEARARHAWQLTQGATVLGLFRVTPEIPAGLPSPRSE
supernatant dilution at which binding is no longer detectable (supernatant dilution (1:x)): 256
